According to patent publication US20240301031A1 (JIANGSU HENGRUI PHARMACEUTICALS, published 2024):

Columns and labels:
[1] = molecular target: T1, human BAFF (10056-HNCH, Sino biological) (human, UniProt Q9Y275 134-285); test: competition ELISA: biotin-labeled BAFF to coated BCMA
T1 construct: Bought protein
Protocol: A receptor protein was diluted to 2 μg/mL with PBS at pH 7.4 (BasalMedia, B320) and added to a 96-well microplate (Corning, 3590) at 100 μL/well. The plate was incubated at 4° C. overnight. After the liquid was discarded, 200 μL of 1% Casein blocking solution (Thermo, 37528) was added to each well for blocking, and the plate was incubated at 37° C. for 2 h. After the blocking was completed, the blocking solution was discarded, and the plate was washed 3 times with a PBST buffer (PBS at pH 7.4 containing 0.1% tween-20) for later use. A biotin-labeled ligand protein at a fixed concentration was mixed with the antibody or fusion protein diluted in gradient, pre-incubated at 37° C. for 30 min, and added to a blocked microplate. The plate was incubated at 37° C. for 1.5 h. After the incubation was completed, the plate was washed 3 times with PBST. 100 μL of streptavidin-HRP (Invitrogen, 434323, diluted at a ratio of 1:4000) was added to each well, and the plate was incubated at 37° C. for 1 h. The supernatant was removed, and the plate was washed 3 times with PBST. […] The plate was read for absorbance values at 450 nm on a microplate reader, the curves for the inhibition of the binding of the ligands to the receptors were fitted with software, and the IC₅₀ values were calculated. […]

[2] = molecular target: T1, human BAFF (10056-HNCH, Sino biological); test: competition ELISA: biotin-labeled BAFF to coated BAFF-R
Protocol: The blocking activity of the antibodies and the fusion proteins for receptors and ligands such as BAFF/BAFF-R, BAFF/BCMA, BAFF/TACI, APRIL/BCMA, APRIL/TACI, and p40/IL-12R1 was assayed by the ELISA method. The specific procedures were as follows:
A receptor protein was diluted to 2 μg/mL with PBS at pH 7.4 (BasalMedia, B320) and added to a 96-well microplate (Corning, 3590) at 100 μL/well. The plate was incubated at 4° C. overnight. After the liquid was discarded, 200 μL of 1% Casein blocking solution (Thermo, 37528) was added to each well for blocking, and the plate was incubated at 37° C. for 2 h. After the blocking was completed, the blocking solution was discarded, and the plate was washed 3 times with a PBST buffer (PBS at pH 7.4 containing 0.1% tween-20) for later use. A biotin-labeled ligand protein at a fixed concentration was mixed with the antibody or fusion protein diluted in gradient, pre-incubated at 37° C. for 30 min, and added to a blocked microplate. The plate was incubated at 37° C. for 1.5 h. After the incubation was completed, the plate was washed 3 times with PBST. 100 μL of streptavidin-HRP (Invitrogen, 434323, diluted at a ratio of 1:4000) was added to each well, and the plate was incubated at 37° C. for 1 h. The supernatant was removed, and the plate was washed 3 times with PBST. 100 μL of TMB chromogenic substrate (KPL, 5120-0077) was added to each well, and the plate was incubated at room temperature for 10-15 min. The reaction was stopped by adding 50 μL of 1 M H₂SO₄ to each well. The plate was read for absorbance values at 450 nm on a microplate reader, the curves for the inhibition of the binding of the ligands to the receptors were fitted with software, and the IC₅₀ values were calculated.

[3] = molecular target: T2, BAFF (ACROBiosystems, BAF-H5248) (UniProt Q9Y275 134-285); test: ELISA, fusion protein coated, BAFF titrated, Anti-His-HRP
T2 construct: Bought protein used in the ELISA with coated test sample
Protocol: The binding activity of the TACI fusion proteins for BAFF and APRIL was assayed by the ELISA method (coating a test fusion protein sample). The specific procedures were as follows:
The test sample was diluted to 2 μg/mL with a PBS (BasalMedia, B320) buffer at pH 7.4 and added to a 96-well microplate (Corning, 3590) at 100 μL/well. The plate was incubated at 4° C. overnight. After the liquid was discarded, 300 μL of 5% skim milk (BD, 232100) diluted with PBS was added to each well for blocking, and the plate was incubated at 37° C. for 2 h. After the blocking was completed, the blocking solution was discarded, and the plate was washed 3 times with a PBST buffer (PBS at pH 7.4 containing 0.1% tween-20). 100 μL of BAFF (ACROBiosystems, BAF-H5248) or APRIL (R&D Systems, 5860-AP-010/CF) diluted in a gradient was added to each well, and the plate was incubated at 37° C. for 1 h. After the incubation, the plate was washed 3 times with PBST. When detecting the binding to BAFF, 100 μL of Anti-His-HRP (Sino biological, 105327-MM02T-H, diluted at a ratio of 1:2000) was added to each well; when detecting the binding to APRIL, 100 μL of anti-HA-HRP (Abcam, ab1190, diluted at a ratio of 1:4000) was added to each well. The plate was incubated at 37° C. for 1 h. The plate was washed 3 times with PBST. 100 μL of TMB chromogenic substrate (KPL, 5120-0077) was added to each well, and the plate was incubated at room temperature for 10-15 min. The reaction was stopped by adding 50 μL of 1 M H₂SO₄ to each well. The plate was read for absorbance values at 450 nm on a microplate reader, the binding curves of the antibodies to an antigen were fitted with software, and the EC₅₀ values were calculated.

[4] = molecular target: T1, human BAFF (10056-HNCH, Sino biological); test: competition ELISA: biotin-labeled BAFF to coated BAFF-R; remark: listed apart in the source
Outline: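 Receptor coated at 2 μg/mL in PBS pH 7.4 overnight at 4° C and casein-blocked; fixed-concentration biotinylated ligand preincubated 30 min at 37° C with serially diluted antibody/fusion protein, then bound 1.5 h at 37° C. Streptavidin-HRP/TMB read at 450 nm; IC₅₀ from fitted binding-inhibition curves.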

B1: RCT-18 (Telitacicept) (Fc fusion)
chain: SRVDQEERFPQGLWTGVAMRSCPEEQYWDPLLGTCMSCKTICNHQSQRTCAAFCRSLSCRKEQGKFYDHLLRDCISCASICGQHPKQCAYFCENKLRSPVNLPPELDKTHTCPPCPAPEAEGAPSVFLFPPKPKDTLMISRTPEVTCVVVDVSHEDPEVKFNWYVDGVEVHNAKTKPREEQYNSTYRVVSVLTVLHQDWLNGKEYKCKVSNKALPSSIEKTISKAKGQPREPQVYTLPPSRDELTKNQVSLTCLVKGFYPSDIAVEWESNGQPENNYKTTPPVLDSDGSFFLYSKLTVDKSRWQQGNVFSCSVMHEALHNHYTQKSLSLSPGK
notes: Positive control; TACI part is positions 13-118 of the extracellular region of human TACI, the rest is Fc
[1]
  IC50: 0.973 nM
[2]
  IC50: 19.2 nM
[3]
  EC50: 96.2 nM
[4]
  IC50: 27.5 nM
